In publication PMC10281804, “The structural basis of the talin–KANK1 interaction that coordinates the actin and microtubule cytoskeletons at focal adhesions” (Open Biology, 2023):
Positions count from the first letter of the chain named. Numbers in names are those of the source.

B1: KANK1 WT: human FL-KANK1 tagged with pmCherry (protein, UniProt Q14678 1-1352, looked up)
chain: MAHTTKVNGSASGKAGDILSGDQDKEQKDPYFVETPYGYQLDLDFLKYVDDIQKGNTIKRLNIQKRRKPSVPCPEPRTTSGQQGIWTSTESLSSSNSDDNKQCPNFLIARSQVTSTPISKPPPPLETSLPFLTIPENRQLPPPSPQLPKHNLHVTKTLMETRRRLEQERATMQMTPGEFRRPRLASFGGMGTTSSLPSFVGSGNHNPAKHQLQNGYQGNGDYGSYAPAAPTTSSMGSSIRHSPLSSGISTPVTNVSPMHLQHIREQMAIALKRLKELEEQVRTIPVLQVKISVLQEEKRQLVSQLKNQRAASQINVCGVRKRSYSAGNASQLEQLSRARRSGGELYIDYEEEEMETVEQSTQRIKEFRQLTADMQALEQKIQDSSCEASSELRENGECRSVAVGAEENMNDIVVYHRGSRSCKDAAVGTLVEMRNCGVSVTEAMLGVMTEADKEIELQQQTIESLKEKIYRLEVQLRETTHDREMTKLKQELQAAGSRKKVDKATMAQPLVFSKVVEAVVQTRDQMVGSHMDLVDTCVGTSVETNSVGISCQPECKNKVVGPELPMNWWIVKERVEMHDRCAGRSVEMCDKSVSVEVSVCETGSNTEESVNDLTLLKTNLNLKEVRSIGCGDCSVDVTVCSPKECASRGVNTEAVSQVEAAVMAVPRTADQDTSTDLEQVHQFTNTETATLIESCTNTCLSTLDKQTSTQTVETRTVAVGEGRVKDINSSTKTRSIGVGTLLSGHSGFDRPSAVKTKESGVGQININDNYLVGLKMRTIACGPPQLTVGLTASRRSVGVGDDPVGESLENPQPQAPLGMMTGLDHYIERIQKLLAEQQTLLAENYSELAEAFGEPHSQMGSLNSQLISTLSSINSVMKSASTEELRNPDFQKTSLGKITGNYLGYTCKCGGLQSGSPLSSQTSQPEQEVGTSEGKPISSLDAFPTQEGTLSPVNLTDDQIAAGLYACTNNESTLKSIMKKKDGNKDSNGAKKNLQFVGINGGYETTSSDDSSSDESSSSESDDECDVIEYPLEEEEEEEDEDTRGMAEGHHAVNIEGLKSARVEDEMQVQECEPEKVEIRERYELSEKMLSACNLLKNTINDPKALTSKDMRFCLNTLQHEWFRVSSQKSAIPAMVGDYIAAFEAISPDVLRYVINLADGNGNTALHYSVSHSNFEIVKLLLDADVCNVDHQNKAGYTPIMLAALAAVEAEKDMRIVEELFGCGDVNAKASQAGQTALMLAVSHGRIDMVKGLLACGADVNIQDDEGSTALMCASEHGHVEIVKLLLAQPGCNGHLEDNDGSTALSIALEAGHKDIAVLLYAHVNFAKAQSPGTPRLGRKTSPGPTHRGSFD
modifications: full-length mCherry fusion
notes: human FL-KANK1 tagged with pmCherry
B2: KANK1 L41E: mCherry-KANK1 with point mutation L41E (protein)
chain: B1 chain with L41E
modifications: left off: mCherry, C-terminal, kept
B3: KANK1 L43E: mCherry-KANK1 with point mutation L43E (protein)
chain: B1 chain with L43E
modifications: left off: mCherry, C-terminal, kept
B4: KANK1 F45E: mCherry-KANK1 with point mutation F45E (protein)
chain: B1 chain with F45E
modifications: left off: mCherry, C-terminal, kept
B5: KANK1 V49E: mCherry-KANK1 with point mutation V49E (protein)
chain: B1 chain with V49E
modifications: left off: mCherry, C-terminal, kept

Tested on: focal adhesions of NIH3T3 fibroblasts
Assay: KANK1 localization to focal adhesions (co-expression with GFP–paxillin)
Assay type: cell-based, mouse
Conditions: NIH3T3 fibroblasts co-expressing GFP–paxillin
Description: (§1) NIH3T3 mouse fibroblasts and HEK293T human epithelial cells were obtained from the American Type Culture Collection (ATCC). The vinculin null and WT mouse embryonic fibroblasts (MEFs) originate from the Eileen Adamson laboratory. All cells were maintained in Dulbecco's Modified Eagle Medium (DMEM; Sigma) supplemented with 10% fetal bovine serum (FBS, Gibco), 1% L-glutamine (Sigma) and 1% non-essential amino acids (Sigma). Talin1&2 null cells were cultured in DMEM F-12 (Gibco) supplemented with 10% FBS, 1% L-glutamine, 1% non-essential amino acids and […] HEPES (Sigma). All cells were cultured at 37̊C supplied with 5% CO2 and 95% humidity. Transient transfections were performed using Lipofectamine LTX with Plus Reagent (Invitrogen) to NIH3T3 cells, Lipofectamine 2000 (Invitrogen) to talin null cells, and jetPRIME reagent (Polyplus) to MEFs and HEK293T cells, as per the manufacturer's instructions.
(§2) For the construction of mCherry-KANK1, human FL-KANK1 (generous donation from the Bershadsky laboratory) cDNA was tagged in the C-terminal site with pmCherry (Clontech) by restriction digestion. Point mutations (L41E, L43E, F45E and V49E) were introduced in mCherry-KANK1 by site-directed mutagenesis (NEB) using the following oligonucleotides: […]ga[…] and […] for L41E; […]ga[…] and […] for L43E; […]gaa[…] and […] for F45E; […]a[…] and […] for V49E. Generation of GFP–talin1–cBAK and GFP–cBAK was as previously described. G1404L was introduced on GFP–talin1–cBAK by the method above using […]ctt[…] and […]. To generate GFP–talin1 R7DD–cBAK and GFP–talin1 R9DD-cBAK constructs, R7-DD (3555 bp) and R9-DD (2661 bp) were amplified from talin-1 (Mus musculus). Restriction digestion with XhoI and HindIII FastDigest enzymes (Thermo Scientific) was used to linearize GFP–cBAK. DNA assembly was performed to join R7-DD and R9-DD to linearized the GFP–cBAK vector using the NEBuilder HiFi DNA assembly kit (NEB).
(§3) Images of fixed samples in PBS were acquired at room temperature using an Olympus IX83 inverted microscope equipped with a 60×/1.42 PlanApo N oil objective and a QImaging Retiga R6 CCD camera, controlled by Metamorph software. Samples were illuminated using LEDs (UV/Cyan/Green-Yellow/Red, Lumencor) for fluorescence excitation; a Sedat filter set (DAPI/FITC/TRITC/Cy5, Chroma, 89000) was used.

**Q.** B1 was tested. Which “localization of mCherry–KANK1 to FAs / FA belt” value (“localization … to FAs / FA belt” for short) did it give?
**A.** The value was “readily localized to FAs, and predominantly to the typical ‘belt-like’ structure”.

**Q.** Which “localization … to FAs / FA belt” value does the source give for B2 here?
**A.** The value was “abolished localization to FAs and the FA belt”.

**Q.** For B3, which “localization … to FAs / FA belt” value is on record?
**A.** Its value is “abolished localization to FAs and the FA belt”.

**Q.** Which “localization … to FAs / FA belt” value does the source give for B4 here?
**A.** The value was “abolished localization to FAs and the FA belt”.

**Q.** B5 was tested. Which “localization … to FAs / FA belt” value did it give?
**A.** The value was “abolished localization to FAs and the FA belt”.

Tested on: GFP–talin1–cBAK
Assay: Mitochondrial targeting system (MTS): recruitment of mCherry–KANK1 by GFP–talin1–cBAK
Assay type: cell-based
Conditions: NIH3T3 fibroblasts and HEK293T cells; fluorescence microscopy colocalization
Text: To examine the effect of these KANK1 mutations on talin interactions in cells, we next used a mitochondrial targeting system (MTS) which we previously used to screen for defined protein–protein interactions. In this assay, one protein is fused to a small peptide sequence from the pro-apoptotic protein BAK (cBAK) which leads to its insertion into the outer membrane of mitochondria. Proteins that interact with the cBAK-tagged protein will get recruited to mitochondria, and this recruitment can be verified either by visualizing colocalization using fluorescence microscopy (figure 4a) or by purification of mitochondria followed by detection of co-precipitates using biochemistry (figure 4b,c). […] To confirm that the interaction was meditated by the R7 domain, we performed the colocalization assays with truncated talin constructs.
as §1, §2, §3

**Q.** B1 was tested. Which “recruitment of mCherry–KANK1 to mitochondria by GFP–talin1–cBAK” value (from here on “recruitment of mCherry–KANK1”) did it give?
**A.** The value was “readily recruits”.

**Q.** Which “recruitment of mCherry–KANK1” value does the source give for B2 here?
**A.** Its value is “abolishes GFP–talin–cBAK mediated recruitment”.

**Q.** Which “recruitment of mCherry–KANK1” value does the source give for B3 here?
**A.** The value was “abolishes GFP–talin–cBAK mediated recruitment”.

**Q.** Which “recruitment of mCherry–KANK1” value does the source give for B4 here?
**A.** The value was “abolishes GFP–talin–cBAK mediated recruitment”.

**Q.** For B5, which “recruitment of mCherry–KANK1” value is on record?
**A.** Its value is “abolishes GFP–talin–cBAK mediated recruitment”.

Tested on: α/β liprin in NIH3T3 fibroblasts
Assay: α/β liprin localization (CMSC assembly)
Assay type: cell-based, mouse
Conditions: NIH3T3 fibroblasts co-transfected with GFP–paxillin and mCherry–KANK1 F45E; immunostaining
Description: as §1, with “instructions. […]” for “instructions.”
as §3

**Q.** For B4, which α/β liprin localization is on record?
**A.** Its α/β liprin localization is “loss of α/β liprin from both the adhesion belt and the cellular cortex”.

Tested on: talin1-cBAK
Assay: Mitochondria pulldown of KANK1 WT or point mutations, Western blot
Assay type: cell-based
Conditions: HEK293T cells; mitochondrial pulldown, triplicate experiments, normalized to WT; *** p < 0.001 (one-way ANOVA, Dunnett's)
Text: as §2
For fixed cell imaging, cells were cultured in glass-bottom dishes (IBL) coated with bovine fibronectin (Sigma) at a final concentration of 10 µg ml^−1. Samples were fixed in 4% paraformaldehyde (PFA, Sigma), and warmed to 37̊C, for 15 min before being washed three times with PBS. For immunofluorescence staining, samples were permeabilized at room temperature with 0.5% Triton X-100 (Sigma) for 5 min before being washed three times. […]
Protein samples were extracted from cells and mitochondria, respectively, using RIPA lysis buffer (Chromotek) supplemented with protease inhibitors. […] Primary antibody signal was detected using goat anti-mouse IgG conjugated to IRDye 680RD (ab216776, abcam) and goat anti-rabbit IgG conjugated to IRDye 800CW (ab216773, abcam) secondary antibodies, diluted 1 : 15 000, imaged with an Odyssey CLx imaging system (LI-CO Biosciences). […]

**Q.** For B2, which “relative KANK1 binding to talin1-cBAK (%)” value (shortened to “relative KANK1 binding … (%)”) is on record?
**A.** Its value is “not detected”.

**Q.** With B3 as the molecule, how does the “relative KANK1 binding … (%)” value read?
**A.** The value was “not detected”.

**Q.** B4 was tested. Which “relative KANK1 binding … (%)” value did it give?
**A.** Its value is “not detected”.
